From patent publication US20110118131A1 (published 2011)
Substitutions are numbered along the chain they refer to. In names and notes the source's numbering stands.

B1: XPA23 Fab, heavy chain G55S (Fab, V domains shown)
VH: EVQLLESGGGLVQPGGSLRLSCAASGFTFSKYFMFWVRQAPGKGLEWVSVISPSSGMTRYADSVKGRFTISRDNSKNTLYLQMNSLRAEDTAVYYCARVGYGGNSDYWGQGTLVTVSS
VL: DIQMTQSPSSVSASVGDRLTIICRASQDINRWLAWYQQTPGNAPKLLIHSATSLQSGVPSRFSGSGSGTDFTLTINSLQPEDFATYYCQQADSFPLTFGGGTKVEIK
B2: XPA23 Fab, heavy chain G100R (Fab, V domains shown)
VH: B1 VH with S55G, G100R
VL: B1 VL
B3: XPA23 Fab, heavy chain G102E (Fab, V domains shown)
VH: B1 VH with S55G, G102E
VL: B1 VL
B4: XPA23 Fab, heavy chain I51H (Fab, V domains shown)
VH: B1 VH with I51H, S55G
VL: B1 VL
B5: XPA23 Fab, heavy chain G56F (Fab, V domains shown)
VH: B1 VH with S55G, G56F
VL: B1 VL
B6: XPA23 Fab, heavy chain G103D (Fab, V domains shown)
VH: B1 VH with S55G, G103D
VL: B1 VL
B7: XPA23 Fab, heavy chain G56K (Fab, V domains shown)
VH: B1 VH with S55G, G56K
VL: B1 VL
B8: XPA23 Fab, heavy chain G102Y (Fab, V domains shown)
VH: B1 VH with S55G, G102Y
VL: B1 VL
B9: XPA23 Fab, heavy chain G103Q (Fab, V domains shown)
VH: B1 VH with S55G, G103Q
VL: B1 VL
B10: XPA23 Fab, heavy chain G102N (Fab, V domains shown)
VH: B1 VH with S55G, G102N
VL: B1 VL
B11: XPA23 Fab, heavy chain G103E (Fab, V domains shown)
VH: B1 VH with S55G, G103E
VL: B1 VL
B12: XPA23 Fab, heavy chain I51K (Fab, V domains shown)
VH: B1 VH with I51K, S55G
VL: B1 VL
B13: XPA23 Fab, heavy chain G56H (Fab, V domains shown)
VH: B1 VH with S55G, G56H
VL: B1 VL
B14: XPA23 Fab, heavy chain G102Q (Fab, V domains shown)
VH: B1 VH with S55G, G102Q
VL: B1 VL
B15: XPA23 Fab, heavy chain G56W (Fab, V domains shown)
VH: B1 VH with S55G, G56W
VL: B1 VL
B16: XPA23 Fab, heavy chain G103W (Fab, V domains shown)
VH: B1 VH with S55G, G103W
VL: B1 VL
B17: XPA23 Fab, heavy chain I51F (Fab, V domains shown)
VH: B1 VH with I51F, S55G
VL: B1 VL
B18: XPA23 Fab, heavy chain G100Y (Fab, V domains shown)
VH: B1 VH with S55G, G100Y
VL: B1 VL
B19: XPA23 Fab, heavy chain G103K (Fab, V domains shown)
VH: B1 VH with S55G, G103K
VL: B1 VL
B20: XPA23 Fab, heavy chain G103F (Fab, V domains shown)
VH: B1 VH with S55G, G103F
VL: B1 VL
B21: XPA23 Fab, heavy chain G100F (Fab, V domains shown)
VH: B1 VH with S55G, G100F
VL: B1 VL
B22: XPA23 Fab, heavy chain G56E (Fab, V domains shown)
VH: B1 VH with S55G, G56E
VL: B1 VL
B23: XPA23 Fab, heavy chain G56N (Fab, V domains shown)
VH: B1 VH with S55G, G56N
VL: B1 VL
B24: XPA23 Fab, heavy chain I51S (Fab, V domains shown)
VH: B1 VH with I51S, S55G
VL: B1 VL
B25: XPA23 Fab, heavy chain G102H (Fab, V domains shown)
VH: B1 VH with S55G, G102H
VL: B1 VL
B26: XPA23 Fab, heavy chain G100Q (Fab, V domains shown)
VH: B1 VH with S55G, G100Q
VL: B1 VL
B27: XPA23 Fab, heavy chain G56R (Fab, V domains shown)
VH: B1 VH with S55G, G56R
VL: B1 VL
B28: XPA23 Fab, heavy chain I51N (Fab, V domains shown)
VH: B1 VH with I51N, S55G
VL: B1 VL
B29: XPA23 Fab, heavy chain G100W (Fab, V domains shown)
VH: B1 VH with S55G, G100W
VL: B1 VL
B30: XPA23 Fab, heavy chain G100S (Fab, V domains shown)
VH: B1 VH with S55G, G100S
VL: B1 VL
B31: XPA23 Fab, heavy chain G102W (Fab, V domains shown)
VH: B1 VH with S55G, G102W
VL: B1 VL
B32: XPA23 Fab, heavy chain I51D (Fab, V domains shown)
VH: B1 VH with I51D, S55G
VL: B1 VL
B33: XPA23 Fab, heavy chain I51W (Fab, V domains shown)
VH: B1 VH with I51W, S55G
VL: B1 VL
B34: XPA23 Fab, heavy chain I51R (Fab, V domains shown)
VH: B1 VH with I51R, S55G
VL: B1 VL
B35: XPA23 Fab, heavy chain G102K (Fab, V domains shown)
VH: B1 VH with S55G, G102K
VL: B1 VL
B36: XPA23 Fab, heavy chain G56Y (Fab, V domains shown)
VH: B1 VH with S55G, G56Y
VL: B1 VL
B37: XPA23 Fab, heavy chain G56D (Fab, V domains shown)
VH: B1 VH with S55G, G56D
VL: B1 VL
B38: XPA23 Fab, heavy chain G100D (Fab, V domains shown)
VH: B1 VH with S55G, G100D
VL: B1 VL
B39: XPA23 Fab, heavy chain G103R (Fab, V domains shown)
VH: B1 VH with S55G, G103R
VL: B1 VL
B40: XPA23 Fab, heavy chain G55Y (Fab, V domains shown)
VH: B1 VH with S55Y
VL: B1 VL
B41: XPA23 Fab, heavy chain G56Q (Fab, V domains shown)
VH: B1 VH with S55G, G56Q
VL: B1 VL
B42: XPA23 Fab, heavy chain I51E (Fab, V domains shown)
VH: B1 VH with I51E, S55G
VL: B1 VL
B43: XPA23 Fab, heavy chain G102R (Fab, V domains shown)
VH: B1 VH with S55G, G102R
VL: B1 VL
B44: XPA23 Fab, heavy chain I51Q (Fab, V domains shown)
VH: B1 VH with I51Q, S55G
VL: B1 VL
B45: XPA23 Fab, heavy chain G100K (Fab, V domains shown)
VH: B1 VH with S55G, G100K
VL: B1 VL
B46: XPA23 Fab, heavy chain G100H (Fab, V domains shown)
VH: B1 VH with S55G, G100H
VL: B1 VL

Biological target: T1, IL-1beta (UniProt P01584 117-269)
T1 construct: also called IL-1β
Assay: Biacore

Row | Binder | fold difference in affinity vs parental [fold] | binding result
1 | B1 | 1.02 | 
2 | B2 |  | no binding
3 | B3 |  | no binding
4 | B4 | 0.08 | 
5 | B5 | 1.41 | 
6 | B6 |  | no binding
7 | B7 | 2.05 | 
8 | B8 |  | no binding
9 | B9 |  | no binding
10 | B10 | 1.17 | 
11 | B11 |  | no binding
12 | B12 | 0.11 | 
13 | B13 | 0.82 | 
14 | B14 |  | no binding
15 | B15 | 1.51 | 
16 | B16 |  | no binding
17 | B17 | 0.9 | 
18 | B18 | 0.09 | 
19 | B19 |  | no binding
20 | B20 |  | no binding
21 | B21 |  | no binding
22 | B22 | 1.21 | 
23 | B23 | 1.06 | 

Row | Binder | fold difference in affinity vs parental [fold] | binding result
24 | B24 | 0.69 | 
25 | B25 |  | no binding
26 | B26 |  | no binding
27 | B27 | 2.11 | 
28 | B28 | 0.68 | 
29 | B29 | 0.05 | 
30 | B30 | 2.8 | 
31 | B31 |  | no binding
32 | B32 | 0.07 | 
33 | B33 |  | no binding
34 | B34 | 0.1 | 
35 | B35 |  | no binding
36 | B36 | 1.27 | 
37 | B37 | 0.05 | 
38 | B38 |  | no binding
39 | B39 |  | no binding
40 | B40 | 0.08 | 
41 | B41 | 1.31 | 
42 | B42 | 0.73 | 
43 | B43 |  | no binding
44 | B44 | 0.83 | 
45 | B45 |  | no binding
46 | B46 | 0.06 | 
